Reference: patent publication US20110059888A1
*1 amine or outer side, *2 acyl side, *3 side chain or, on linkers, in order; H or OH if unused. [ ]: non-standard residue; d: D form. Ser(Me) = O-methylserine, COC[C@H](N[*:1])C(=O)[*:2]; Arg(Me) = CNC(=N)NCCC[C@H](N)C(=O)O; Ala(cPr) = N[C@@H](CC1CC1)C(=O)O; Hyp = O=C(O)[C@@H]1C[C@@H](O)CN1; 2Pal = N[C@@H](Cc1ccccn1)C(=O)O; 3Pal = N[C@@H](Cc1cccnc1)C(=O)O; 4Pal = N[C@@H](Cc1ccncc1)C(=O)O; Cha = N[C@@H](CC1CCCCC1)C(=O)O

B1: des(1)-Ac-[D-Tyr2,Hyp3,Thr5,Val7,Arg(Me)9,Trp10]MS10 (peptide)
peptide: Ac-[dY][Hyp]NTFVL[Arg(Me)]W-NH2
SMILES: CNC(=N)NCCC[C@H](NC(=O)[C@H](CC(C)C)NC(=O)[C@@H](NC(=O)[C@H](Cc1ccccc1)NC(=O)[C@@H](NC(=O)[C@H](CC(N)=O)NC(=O)[C@@H]1C[C@@H](O)CN1C(=O)[C@@H](Cc1ccc(O)cc1)NC(C)=O)[C@@H](C)O)C(C)C)C(=O)N[C@@H](Cc1c[nH]c2ccccc12)C(N)=O
B2: des(1)-Ac-[D-Tyr2,Glu3,Thr5,Cha6,Arg(Me)9,Trp10]MS10 (peptide)
peptide: Ac-[dY]ENT[Cha]GL[Arg(Me)]W-NH2
SMILES: CNC(=N)NCCC[C@H](NC(=O)[C@H](CC(C)C)NC(=O)CNC(=O)[C@H](CC1CCCCC1)NC(=O)[C@@H](NC(=O)[C@H](CC(N)=O)NC(=O)[C@H](CCC(=O)O)NC(=O)[C@@H](Cc1ccc(O)cc1)NC(C)=O)[C@@H](C)O)C(=O)N[C@@H](Cc1c[nH]c2ccccc12)C(N)=O
B3: des(1)-Ac-[D-Tyr2,Hyp3,Thr5,Pya(3)6,Arg(Me)9,Trp10]MS10 (peptide)
peptide: Ac-[dY][Hyp]NT[3Pal]GL[Arg(Me)]W-NH2
SMILES: CNC(=N)NCCC[C@H](NC(=O)[C@H](CC(C)C)NC(=O)CNC(=O)[C@H](Cc1cccnc1)NC(=O)[C@@H](NC(=O)[C@H](CC(N)=O)NC(=O)[C@@H]1C[C@@H](O)CN1C(=O)[C@@H](Cc1ccc(O)cc1)NC(C)=O)[C@@H](C)O)C(=O)N[C@@H](Cc1c[nH]c2ccccc12)C(N)=O
B4: des(1)-Ac-[D-Tyr2,Glu3,Thr5,Arg(Me)9,Trp10]MS10 (peptide)
peptide: Ac-[dY]ENTFGL[Arg(Me)]W-NH2
SMILES: CNC(=N)NCCC[C@H](NC(=O)[C@H](CC(C)C)NC(=O)CNC(=O)[C@H](Cc1ccccc1)NC(=O)[C@@H](NC(=O)[C@H](CC(N)=O)NC(=O)[C@H](CCC(=O)O)NC(=O)[C@@H](Cc1ccc(O)cc1)NC(C)=O)[C@@H](C)O)C(=O)N[C@@H](Cc1c[nH]c2ccccc12)C(N)=O
B5: des(1)-Ac-[D-Tyr2,Hyp3,Thr5,Ser(Me)7,Arg(Me)9,Trp10]MS10 (peptide)
peptide: Ac-[dY][Hyp]NTF[Ser(Me)]L[Arg(Me)]W-NH2
SMILES: CNC(=N)NCCC[C@H](NC(=O)[C@H](CC(C)C)NC(=O)[C@H](COC)NC(=O)[C@H](Cc1ccccc1)NC(=O)[C@@H](NC(=O)[C@H](CC(N)=O)NC(=O)[C@@H]1C[C@@H](O)CN1C(=O)[C@@H](Cc1ccc(O)cc1)NC(C)=O)[C@@H](C)O)C(=O)N[C@@H](Cc1c[nH]c2ccccc12)C(N)=O
B6: des(1)-Ac-[D-Tyr2,Hyp3,Thr5,Pya(4)6,Arg(Me)9,Trp10]MS10 (peptide)
peptide: Ac-[dY][Hyp]NT[4Pal]GL[Arg(Me)]W-NH2
SMILES: CNC(=N)NCCC[C@H](NC(=O)[C@H](CC(C)C)NC(=O)CNC(=O)[C@H](Cc1ccncc1)NC(=O)[C@@H](NC(=O)[C@H](CC(N)=O)NC(=O)[C@@H]1C[C@@H](O)CN1C(=O)[C@@H](Cc1ccc(O)cc1)NC(C)=O)[C@@H](C)O)C(=O)N[C@@H](Cc1c[nH]c2ccccc12)C(N)=O
B7: des(1)-Ac-[D-Tyr2,Hyp3,Thr5,Pya(2)6,Arg(Me)9,Trp10]MS10 (peptide)
peptide: Ac-[dY][Hyp]NT[2Pal]GL[Arg(Me)]W-NH2
SMILES: CNC(=N)NCCC[C@H](NC(=O)[C@H](CC(C)C)NC(=O)CNC(=O)[C@H](Cc1ccccn1)NC(=O)[C@@H](NC(=O)[C@H](CC(N)=O)NC(=O)[C@@H]1C[C@@H](O)CN1C(=O)[C@@H](Cc1ccc(O)cc1)NC(C)=O)[C@@H](C)O)C(=O)N[C@@H](Cc1c[nH]c2ccccc12)C(N)=O

biological target: human OT7T175 (metastin receptor) (human) (UniProt Q969F8); assay: cell-based or functional assay
Chain of UniProt Q969F8 (Q969F8 whole entry L364H): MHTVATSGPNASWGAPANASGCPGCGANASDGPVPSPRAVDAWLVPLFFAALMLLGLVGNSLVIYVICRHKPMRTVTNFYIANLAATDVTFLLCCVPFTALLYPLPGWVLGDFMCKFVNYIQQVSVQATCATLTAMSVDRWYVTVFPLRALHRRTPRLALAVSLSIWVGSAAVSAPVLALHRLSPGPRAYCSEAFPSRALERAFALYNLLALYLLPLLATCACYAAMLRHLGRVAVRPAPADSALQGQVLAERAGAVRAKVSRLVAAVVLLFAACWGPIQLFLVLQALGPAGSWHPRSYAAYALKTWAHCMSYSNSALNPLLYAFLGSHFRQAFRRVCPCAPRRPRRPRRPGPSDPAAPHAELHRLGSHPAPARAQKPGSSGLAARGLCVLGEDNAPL

Molecule | Specific Activity (EC50 of test compound based on EC50 of Metastin (45-54); intracellular calcium, FLIPR) (ratio to EC50 of Metastin (45-54))
des(1)-Ac-[D-Tyr2,Glu3,Thr5,Cha6,Ser(Me)8,Arg(Me)9,Trp10]MS10 (peptide) | 0.5
des(1)-Ac-[D-Tyr2,Hyp3,Thr5,Cha6,Nle8,Arg(Me)9,Trp10]MS10 (peptide) | 0.6
des(1)-Ac-[D-Tyr2,Hyp3,Thr5,Nal(2)6,Arg(Me)9,Trp10]MS10 (peptide) | 1
des(1)-Ac-[D-Tyr2,Hyp3,Thr5,Cha6,Ala7,Arg(Me)9,Trp10]MS10 (peptide) | 0.5
des(1)-Ac-[D-Tyr2,Hyp3,Thr5,Cha6,Gly7Ψ((E)CH═CH)Leu8,Trp10]MS10 (peptide) | 0.6
des(1)-Ac-[D-Tyr2,Hyp3,Thr5,Ser(Me)8,Arg(Me)9,Trp10]MS10 (peptide) | 0.8
des(1)-Ac-[D-Tyr2,Hyp3,Thr5,Phe6Ψ(CH2CH2)AzaGly7,Arg(Me)9,Trp10]MS10 (peptide) | 0.6
des(1)-Ac-[D-Tyr2,Hyp3,Thr5,Nva8,Arg(Me)9,Trp10]MS10 (peptide) | 0.7
des(1)-Ac-[D-Tyr2,Pro(4F)3,Thr5,Cha6,Ala(cPr)8,Arg(Me)9,Trp10]MS10 (peptide) | 0.4
des(1)-Ac-[D-Tyr2,Hyp3,Alb4,Thr5,Cha6,Gly7Ψ((E)CH═CH)Leu8,Trp10]MS10 (peptide) | 0.5
des(1)-Ac-[D-Tyr2,Hyp3,Thr5,Cha6,Gly7Ψ(CH2S)Leu8,Arg(Me)9,Trp10]MS10 (peptide) | 1.7
des(1)-Ac-[D-Tyr2,Hyp3,Thr5,Cha6,Ser(Me)8,Arg(Me)9,Trp10]MS10 (peptide) | 0.5
des(1)-Ac-[D-Tyr2,Hyp3,Thr5,Aib7,Arg(Me)9,Trp10]MS10 (peptide) | 1.5
des(1)-Ac-[D-Tyr2,Hyp3,Thr5,Gly7Ψ((E)CH═CH)Leu8,Trp10]MS10 (peptide) | 0.4
des(1)-Ac-[D-Tyr2,Hyp3,Thr5,Gly7Ψ(CH2S)Leu8,Arg(Me)9,Trp10]MS10 (peptide) | 1.2
des(1)-Ac-[D-Tyr2,Glu3,Thr5,Cha6,Nva8,Arg(Me)9,Trp10]MS10 (peptide) | 0.4
des(1)-Ac-[D-Tyr2,Hyp3,Thr5,Cha6,Leu(Me)8,Arg(Me)9,Trp10]MS10 (peptide) | 1.4
des(1)-Ac-[D-Tyr2,Hyp3,Thr5,Cha6,Arg(Me)9,Trp10]MS10 (peptide) | 0.3

Molecule | Specific Activity (EC50 of test compound based on EC50 of Metastin (45-54); intracellular calcium, FLIPR) (ratio to EC50 of Metastin (45-54))
des(1)-Ac-[D-Tyr2,Hyp3,Thr5,Cha6,Nva8,Arg(Me)9,Trp10]MS10 (peptide) | 0.5
B1 | 1.7
B2 | 0.6
Ac-[dY][Hyp]NTFGL[Arg(Me)]W-NH2 (also: Phe5-Gly6 amide replaced by CH2CH2) [des(1)-Ac-[D-Tyr2,Hyp3,Thr5,Phe6Ψ(CH2CH2)Gly7,Arg(Me)9,Trp10]MS10] | 1.3
Ac-[dY][Hyp]NTFGL[Arg(Me)]W-NH2 (also: Phe5-Gly6 amide replaced by (S)CHOH-CH2) [des(1)-Ac-[D-Tyr2,Hyp3,Thr5,Phe6Ψ((S)CHOH-CH2)Gly7,Arg(Me)9,Trp10]MS10] | 1.2
B3 | 0.9
B4 | 0.5
Ac-[dY][Hyp]NTFGL[Arg(Me)]W-NH2 [des(1)-Ac-[D-Tyr2,Hyp3,Thr5,Arg(Me)9,Trp10]MS10] | 1.2
Ac-[dY][Hyp]NTFGL[Arg(Me)]W-NH2 (also: Phe5-Gly6 amide bond replaced by CH2O) [des(1)-Ac-[D-Tyr2,Hyp3,Thr5,Phe6Ψ(CH2O)Gly7,Arg(Me)9,Trp10]MS10] | 0.5
Ac-[dY][Hyp]NTFGL[Arg(Me)]W-NH2 (also: Phe5-Gly6 amide replaced by (E)CH=CH) [des(1)-Ac-[D-Tyr2,Hyp3,Thr5,Phe6Ψ((E)CH═CH)Gly7,Arg(Me)9,Trp10]MS10] | 0.7
Ac-[dY][Hyp]NTFGL[Arg(Me)]W-NH2 (also: Phe5-Gly6 amide replaced by (S)CHOH-(E)CH=) [des(1)-Ac-[D-Tyr2,Hyp3,Thr5,Phe6Ψ((S)CHOH-(E)CH=)Gly7,Arg(Me)9,Trp10]MS10] | 1.7
B5 | 1.2
Ac-[dY][Hyp]NTFGL[Arg(Me)]W-NH2 (also: Phe5-Gly6 amide bond replaced by COCH2) [des(1)-Ac-[D-Tyr2,Hyp3,Thr5,Phe6Ψ(COCH2)Gly7,Arg(Me)9,Trp10]MS10] | 1.1
B6 | 0.9
Ac-[dY][Hyp]NTFGL[Arg(Me)]W-NH2 (also: Gly6-Leu7 amide replaced by CH2NH) [des(1)-Ac-[D-Tyr2,Hyp3,Thr5,Gly7Ψ(CH2NH)Leu8,Arg(Me)9,Trp10]MS10] | 2.9
Ac-[dY][Hyp]NT[Ala(cPr)]GL[Arg(Me)]W-NH2 [des(1)-Ac-[D-Tyr2,Hyp3,Thr5,Ala(cPr)6,Arg(Me)9,Trp10]MS10] | 1.9
B7 | 1.2
